Test results from US20060183194A1 (Genentech, published 2006).
Ends that are not written are not given here.

Columns and labels:
[1] = target: T1, ErbB-4 receptor-Ig fusion (human, UniProt Q15303 26-651); experiment: phage ELISA; ratio to wild-type HRG-β1 177-244 phage
T1 construct: extracellular domain;range 224-C-terminus; also called ErbB-4-Ig; not shown: human IgG heavy chain constant region from His224 (hinge) on
T1 sequence: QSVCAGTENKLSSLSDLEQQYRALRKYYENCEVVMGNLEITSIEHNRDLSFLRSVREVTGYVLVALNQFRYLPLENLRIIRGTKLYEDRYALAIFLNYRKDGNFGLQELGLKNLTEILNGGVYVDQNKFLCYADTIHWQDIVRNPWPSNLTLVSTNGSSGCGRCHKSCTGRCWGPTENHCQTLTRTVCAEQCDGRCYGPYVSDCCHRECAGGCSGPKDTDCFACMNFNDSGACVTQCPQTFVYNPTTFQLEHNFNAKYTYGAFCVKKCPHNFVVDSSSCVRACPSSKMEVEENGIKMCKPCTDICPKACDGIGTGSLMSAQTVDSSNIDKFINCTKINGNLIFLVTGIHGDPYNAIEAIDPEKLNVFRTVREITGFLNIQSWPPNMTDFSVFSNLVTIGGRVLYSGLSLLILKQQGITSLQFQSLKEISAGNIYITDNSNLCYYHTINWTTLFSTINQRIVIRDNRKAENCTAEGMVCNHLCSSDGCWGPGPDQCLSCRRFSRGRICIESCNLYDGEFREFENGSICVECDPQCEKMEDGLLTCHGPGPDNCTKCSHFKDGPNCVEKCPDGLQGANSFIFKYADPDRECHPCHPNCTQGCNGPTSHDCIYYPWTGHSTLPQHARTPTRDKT

[2] = target: T2, ErbB-3 receptor-Ig fusion (human, UniProt P21860 20-643); experiment: as above
T2 construct: extracellular domain;range 224-C-terminus; also called ErbB-3-Ig; 3/3 homodimer; not shown: human IgG heavy chain constant region from His224 (hinge) on
T2 sequence (P21860 other isoform, or with tags, fused parts or gaps): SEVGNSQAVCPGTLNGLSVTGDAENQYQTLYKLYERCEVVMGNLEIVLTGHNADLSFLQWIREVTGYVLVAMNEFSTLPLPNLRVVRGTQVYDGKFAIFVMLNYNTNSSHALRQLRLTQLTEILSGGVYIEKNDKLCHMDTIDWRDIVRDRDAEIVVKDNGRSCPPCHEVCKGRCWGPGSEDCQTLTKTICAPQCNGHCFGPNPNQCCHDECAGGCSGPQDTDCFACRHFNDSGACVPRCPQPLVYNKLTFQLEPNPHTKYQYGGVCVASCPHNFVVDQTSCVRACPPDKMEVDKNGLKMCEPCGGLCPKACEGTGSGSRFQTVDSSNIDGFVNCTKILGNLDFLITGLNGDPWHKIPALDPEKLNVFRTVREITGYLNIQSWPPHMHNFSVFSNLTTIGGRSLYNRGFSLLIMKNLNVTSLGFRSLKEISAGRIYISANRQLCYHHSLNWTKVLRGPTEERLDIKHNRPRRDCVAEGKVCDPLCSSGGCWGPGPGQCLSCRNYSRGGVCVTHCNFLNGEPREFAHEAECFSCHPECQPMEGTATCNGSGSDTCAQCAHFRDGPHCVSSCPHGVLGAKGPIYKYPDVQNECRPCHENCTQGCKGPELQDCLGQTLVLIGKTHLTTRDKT

[3] = target: T1, ErbB-4 receptor-Ig fusion; experiment: phage ELISA; soluble ErbB-4-Ig as competitor
[4] = target: T2, ErbB-3 receptor-Ig fusion; experiment: phage ELISA; soluble ErbB-3-Ig as competitor
[5] = target: T1, ErbB-4 receptor-Ig fusion; experiment: phage ELISA; soluble ErbB-4-Ig as competitor; remark: listed apart in the source
Description: (§1) Microtiter plates (Nunc Maxisorp™ 96-well plates, Inter Med, Denmark) for phage ELISA were prepared as follows. The wells were precoated overnight with 0.5 μg of rabbit anti-human IgG (Fc gamma fragment-specific) antibodies (Jackson Immunoresearch, West Grove, Pa.) in 100 μL 50 mM NaCO₃ (pH 9.6). The wells were blocked for 30 minutes (min) with 200 μL PBS containing 0.1% bovine serum albumin (BSA) and rinsed with wash buffer (PBS containing 0.05% Tween 20™). The wells were then coated with 0.1 μg ErbB-2/3-Ig in binding buffer (PBS, 0.1% BSA, 0.05% Tween 20™) for 1 h, and washed again.
(§2) Serial dilutions of soluble ErbB-2/3-Ig (competitor) and a concentration of phage predetermined to give 60% saturation (without competitor) were added to the wells in 100 μL binding buffer. Following incubation for 2 h at room temperature, plates were washed extensively and treated with a 1:900 dilution of anti-M13 horseradish peroxidase conjugate (Pharmacia, Piscataway, N.J.) for 20 min. The amount of phage binding was determined by assaying horseradish peroxidase activity using o-phenylenediamine dihydrochloride) substrate solution (Sigma Chemical Company, St. Louis, Mo.). EC₅₀ values were calculated as the concentration of soluble ErbB-2/3-Ig required to compete half of the phage off the plate.

[6] = target: T2, ErbB-3 receptor-Ig fusion; experiment: phage ELISA; soluble ErbB-3-Ig as competitor; remark: listed apart in the source
Description: as §1, §2

[7] = target: T3, ErbB-2/3 receptor-Ig fusion (human, UniProt P04626 23-652; P21860 20-643); experiment: phage ELISA; soluble ErbB-2/3-Ig competes phage off plate-bound ErbB-2/3-Ig
T3 construct: extracellular domain;range 224-C-terminus; Co-expressed in HEK-293; also called ErbB-2/3-Ig; 2/3-heterodimer; not shown: human IgG heavy chain constant region from His224 (hinge) on

[8] = target: T1, ErbB-4 receptor-Ig fusion; experiment: displacement of 125I-HRG from plate-bound ErbB-4-Ig
Excerpt: For the ErbB-4 binding assays, PBS containing 1% BSA was used as the blocking and binding buffers, and the wash buffer was PBS containing 0.05% Tween 20™.

[9] = target: T2, ErbB-3 receptor-Ig fusion; experiment: phage ELISA; soluble ErbB-3-Ig as competitor; remark: listed apart in the source
Description: as §1
(§3) Serial dilutions of soluble ErbB-2/3-Ig (competitor) and a concentration of phage predetermined to give 60% saturation (without competitor) were added to the wells in 100 μL binding buffer. Following incubation for 2 h at room temperature, plates were washed extensively and treated with a 1:900 dilution of anti-M13 horseradish peroxidase conjugate (Pharmacia, Piscataway, N.J.) for 20 min. The amount of phage binding was determined by assaying horseradish peroxidase activity using o-phenylenediamine dihydrochloride) substrate solution (Sigma Chemical Company, St. Louis, Mo.). EC₅₀ values were calculated as the concentration of soluble ErbB-2/3-Ig required to compete half of the phage off the plate. […]

[10] = target: T1, ErbB-4 receptor-Ig fusion; experiment: phage ELISA; soluble ErbB-4-Ig as competitor; remark: listed apart in the source
Description: as §1, §3

[11] = target: T2, ErbB-3 receptor-Ig fusion; experiment: displacement of 125I-HRG from plate-bound ErbB-3-Ig
[12] = target: T3, ErbB-2/3 receptor-Ig fusion; experiment: displacement of 125I-HRG from plate-bound ErbB-2/3-Ig
[13] = target: T3, ErbB-2/3 receptor-Ig fusion; experiment: told with the 125I-HRG displacement assay; reference ErbB-3-Ig homodimer
[14] = target: ErbB-2/3 heterodimers on MCF7 breast cancer carcinoma cells (UniProt P04626 23-1255; P21860 20-1342, limits assumed); experiment: cell-based or functional assay

“HRG-β1 177-244 H178W with 228-231 replaced by Met, on phage (from UniProt P69168 265-424) (ligand)” was tested, and the EC50 Mut/WT [1] was 1.7 and the EC50 Mut/WT [2] was 1.2.

Molecule “HRG-β1 177-244 H178L with 228-231 replaced by Met, on phage (from UniProt P69168 265-424) (ligand)” has an EC50 Mut/WT [1] of 1.7 and an EC50 Mut/WT [2] of 6.4.

For “HRG-β1 177-244 F189A on phage (from UniProt P69168 265-424) (ligand)”, the EC50 [3] was 106 nM and the EC50 [4] was 892 nM.

For “HRG-β1 177-244 F216A on phage (from UniProt P69168 265-424) (ligand)”, the EC50 [4] was 500 nM.

B1: HRG2: HRG-β1 177-244 displayed on phage, fused to pIII 247 (ligand, phage M13)
chain: SHLVKCAEKEKTFCVNGGECFMVKDLSNPSRYLCKCPNEFTGDRCQNYVMASFYKHLGIEFMEAEELYGGSGGGSGSGDFDYEKMANANKGAMTENADENALQSDAKGKLDSVATDYGAAIDGFIGDVSGLANGNGATGDFAGSNSQMAQVGDGDNSPLMNNFRQYLPSLPQSVECRPFVFSAGKPYEFSIDCDKINLFRGVFAFLLYVATFMYVFSTFANILRNKES
notes: range 247-C-terminus; Monovalent phage display; also called pHRG2-g3
Molecule B1 has an EC50 [5] of 19 nM, an EC50 [6] of 13 nM and an EC50 [7] of 6 nM.

For SHLVKCAEKEKTFCVNGGECFMVKDYGYLMCKCPNEFTGDRCQNYVMAS (ligand, also: three disulfide bonds, pairing not given here) [soluble HRG-β1 EGF variant E2], the EC50 [8] was 2.4 nM.

SHLVKCAEKEKTFCVNGGECYRVKTYGYLMCKCPNEFTGDRCQNYVIAS (ligand, also: three disulfide bonds, pairing not given here, also called D4+E2+M50I) [soluble HRG-β1 EGF combination variant HRG58] was tested, and the EC50 [8] was 0.3 nM.

B2: HRG8: wild-type HRG-β1 EGF (HRG-β1 177-228) displayed on phage, linker to pIII 323 (ligand, phage M13)
chain: SHLVKCAEKEKTFCVNGGECFMVKDLSNPSRYLCKCPNEFTGDRCQNYVMASGGGSGGGSGGGSNSQMAQVGDGDNSPLMNNFRQYLPSLPQSVECRPFVFSAGKPYEFSIDCDKINLFRGVFAFLLYVATFMYVFSTFANILRNKES
notes: range 323-C-terminus; Monovalent phage display; also called pHRG8-g3; wild-type HRG-β1 EGF phage
Molecule B2 has an EC50 [9] of 135 nM, an EC50 [10] of 163 nM and an EC50 [7] of 11 nM.

B3: soluble wild-type HRG-β1 EGF (HRG8, HRG-β1 177-228) (ligand)
chain: SHLVKCAEKEKTFCVNGGECFMVKDLSNPSRYLCKCPNEFTGDRCQNYVMAS
notes: also called HRG8 (WT)
For B3, the EC50 [11] was 2.3 nM, the EC50 [12] was 0.033 nM and the “fold higher affinity than for the 3/3 homodimer” value [13] was about 100 fold. The EC50 [8] was 1.5 nM and the “KIRA EC50 (nM): tyrosine phosphorylation of the ErbB-2 receptor on MCF7 cells” value [14] was 0.212 nM.

B4: soluble HRG-β1 EGF variant F1 (ligand)
chain: SHLVKCAEKEKTFCVNGGECFKVKDLSNPSRYLCKCPNEFTGDRCQNYVIAS
modifications: also: three disulfide bonds, pairing not given here
Molecule B4 has an EC50 [11] of 0.6 nM and an EC50 [8] of 0.26 nM.

B5: soluble HRG-β1 EGF variant A3 (ligand)
chain: WELVPCAEKEKTFCVNGGECFMVKDLSNPSRYLCKCPNEFTGDRCQNYVMAS
modifications: also: three disulfide bonds, pairing not given here
For B5, the EC50 [11] was 4.3 nM and the EC50 [8] was 2.1 nM.

Work on SHLVKCGEEREGFCVNGGECYRVKTYGYLMCKCPNEFTGDRCQHYVIAS (ligand, also: three disulfide bonds, pairing not given here, also called B3+D4+E2+I2) [soluble HRG-β1 EGF combination variant HRG73] yielded an EC50 [8] of 0.31 nM.
